Consider 16 sequences from a protein production outcome set (Wang et al. 2014).

The data set is described as follows: label from the status in PepcDB records.
Regarding “MFRLEDFNFHNKTVFLRVDLNSPMKDGKIISDARFKAVLPTIRYLIESGAKVVIGTHQGKPYSEDYTTTEEHARVLSELLDQHVEYIEDIFGRYAREKIKELKSGEVAILENLRFSAEEVKNKPIEECEKTFLVKKLSKVIDYVVNDAFATAHRSQPSLVGFARIKPMIMGFLMEKEIEALMRAYYSKDSPKIYVLGGAKVEDSLKVVENVLRRERADLVLTGGLVANVFTLAKGFDLGRKNVEFMKKKGLLDYVKHAEEILDEFYPYIRTPVDFAVDYKGERVEIDLLSENRGLLHQYQIMDIGKRTAEKYREILMKARIIVANGPMGVFEREEFAIGTVEVFKAIADSPAFSVLGGGHSIASIQKYGITGITHISTGGGAMLSFFAGEELPVLRALQISYEKFKEVVK”, the protein production entry was “not failed”.

For “MFRSIKVASIVQIVFAVCAVLLALTVFEYKKALNTFTNDLNLTVSNTLTRLQVNLPKPLWDFDLETVKSAISAELKTPEISSIKITDTTGKAILYLTLDQATDDKGLRKTIAVENEGALAELASVSGELEFVEYGKKNPLGSIEIRYSDEFMHQQLAEYVSFNLLKVLILAILIPCMLFIILNFSVLKPLNELGDKTRTTIQWGCRPHPSVTRS”, the protein production result is recorded as “failed”.

For “MFRTSGTKTIVFHCHPRYTMIVCVMEEFCRKKVDGNENNSYLTVCNRKLDQERKEIVMNEKQRLEQTGQIQTASHPADRKSDLERLKAKTTKDYEKYFTSVFLPPNLKEAKKRGKEEVQYVKDFTIPDEFRGMGRGRKFYIRTYGCQMNEHDTEVMAGIFMALGYEPTDRPEDANVILLNTCAIRENAENKVFGELGYLKPLKTTNPDLLLGVCGCMSQEEAVVNKILKQYQYVDLIFGTHNIHRLPYILHEAYMSKEMVVEVWSKEGDVVENLPKVRKGNIKAWVNIMYGCDKFCTYCIVPYTRGKERSRRPEDIIQEVRQLAAQGYKEITLLGQNVNAYGKDFNDIQYGLGDLMDELRKIDIARIRFTTSHPRDFDDRLIEVLAKRGNLVEHIHLPVQSGSTEILKMMGRKYTREEYLELVRKIKAAIPDVALTTDIIVGFPNETDEQFEETLSLYREVEFDSAYTFIYSPREGTPAAKMNDNVPMEVKKERLQRLNALVQEIAAKKMKQYEGQVVEVLVEGESKTNPDVLAGYTRKNKLVHFVGPKSLIGQLVNVRITQAKTWTLTGELANEAIEVN”, the protein production entry is “failed”.

In the case of “MFSLKMRASSNGNHVSGAERLVKEEQIEEISSELIKRAMNHENGVPDFINLKVEKVTENINYIEHLKIKTINSNSKETSREFAINILKKELENYFLKNGKDTKKIDELIDSAFKIIDAGNMRGAAILDLDGNRLEKSSDRGIRVRNIDTAEELSKKILKDGSLTERTVDAIAIATKVVNCDIIAELCTSDNFSYTTGYVATKDGYFRILNLKDSGQVGGRVFFAESSDIDELYDKLENMPVIVY”, the protein production result is listed as “failed”.

With “MFSSSYSNLPPLPHRLFLLLTVIWAGSLWTIGYLVAPTLFSVLPSRETAGMIAGHLFRYEAILGMTVGVLQLVLCNVLIRRGAERYRSLRWIVLTMLVCVLAGYFGVQPFMEGLKVKAQALNLGVSESPYKAEFGMLHGVSSVIYLVQSVLALVLVWRASAPR”, the protein production entry is listed as “failed”.

Consider “MFTFISIMAVGVLIGYPLRHKSQVRKITPLIHIVVCLLLFLLGLSIGLNRLIIDNLGYFCGQAAVISSLSILGSMMASLAVYHIFF”, for which the protein production result is reported as “failed”.

For the sequence “MFTMVQKLWLTVVCAVFVTVSFLYFVSLYSYEKLYVDNLKDSLVMEGKRLSAQYDKREGISIFEEKVRAFDQISSSDVLFVSNPRDLSACLPFDVHHHSLISEGDRQALLDGKTVTKIGYEEHFDRNIMGVVIPVLENKKLVGIVYSYIPLKSIKDLIYDMGLILAPLALAITLLTIWIGRKIIIAITKPLSQMERVANHLATGDFSERITISSEDEIGRLGKAFNKMANSLETEDVKRKEFLANVSHELRTPLSYIKGYSEAILDGVAKGPQQEKVTQLIHKEADRMQRLVHDLLDLAQLEGEHFPLKKQPIVFSQLIEDVLDTYEIKFIEKKIRISTNLNPEIIVMIDEDRMQQVLHNVLDNAIRYTNQNGDIIVTLRQIDDYCELNIKDTGIGIDTEHLENLGERFYRVDKARSRQHGGTGLGLAIVRQIVHIHDGQWRIESEKGNGTTVSIKLKVQDEESMF”, the protein production result was “failed”.

“MFTPGNVLSWATFFPVIGSALIVVLLAAKFFLRLDKKLVDDGSRWIALVTSALSFAAAIAAWRMYDPSATGVQLVQHFTWIRAFNIEFYFGVDGISISMVLLSGLISFIATIASMPWWSGKKDAEMAGMVDDGHEDPHHPKHFSVRMVPGYMAMLLLLQTGMMGTFVALDMFLFYVFWEIMLLPMYFLIGIWGGPRKEYAAIKFFLYTLAGSVLMLLAIIGIYYNSAPAQLADGSWSSGHTFNLIELAKQGAAGQFRNAAPILGFSFAKIVFIGLFIGFAIKIPMFPFHTWLPDAHVEAPTPISVILAGVLLKMGIYGILRFNYGILPDATAWAAGAIAVFGVINIIYAAFVCLAQKDLKKLIAYSSVSHMGFSLLGMAAMTPQGISGAVLNLFTHGIISPMLFLIVGVIYDRAHHREIEKFGGLAQELPEYSAIMGLAFFASLGLPGLAGFISEFTVFSGAFPVFTTYTIISATSVVLTAAYYLWAIHRMFLGKLNPVYKGYPDLNWRERMSLYPLAVICIYLGFYPQAILGVINPALHALIQNIKPL”: the protein production entry is recorded as “failed”.

As to “MFTYLLITIFGIGLLIWAFWYDKNMFKPEKKKNGKMTKPLHTRWYFWVLVVFSIVGGIGNMLGLGADDDDSDNNSAQTVQTSKKAKQSKAENHSKAKKSGTKKSKEISDEEKEAAALLLLRKNFKGKAKVWYDSDNKAFMIQPTGTEFKEELLDIIATQDTSDWKDLTDSMDSLSRSLYKNLQLADFVSIVNPDNPDKVLYSSLNGHSEYDFLKDDE”, the protein production result was “failed”.

For “MFVGVVVIVAYGNLGQRLAYTVRSDEVVATAGFVLVGFVAGVAGQVLGTRIQAAVGEGAAVVDLPLVLFLAASGAFVAALLRSVLFERDDPLVMLTVGLLLWLFFELDPSVTARRVVIALAVTVLLGYLSYALDTASLPGMLTGVLLSFLTIVLGGFGWFAMLITFFGLGGLSTKYRYDEKLDRGIAEENEGARGSGNVLANSIVALFAVVAAAASPSHIAVDPLLFFYAFAGAVAAAMTDTFSSEFGGLYDNPRLITTLRPVEPGTDGGVTWQGVAAGAAGAGIIAGIAALTQDISTVGSGVILLCGLVGMTVDSLLGATVEGSVVGNQGVNMLATLAAALTGAGVVLTAGLL”, the protein production result was “failed”.

As to “MFVHTKTKKKRKWQRKVFLLLLLFLLPIVSVLAFIVLFIGGGTAESHDVEATTGGVKLSAKQFADKTKLGISEEEAKNALAFADRLMSRHHFTAQATAGVLAVGFRESGFDVKAVNNSGGVAGFFQWSGWGSSVNGDRWKVASKRELTLEVEVDLMSTELDGRYADVVKKVGSATDEKQAAKDWSQYYEGVAVSDGQTKADKIESWATTICEALKSGGTNYAKVNNTGTSSTAIPQGWENISAFDGHAYEGSENYPQGQCTWYVYNRAKQLGVSFSPYMGNGGQWYQVQGYHSSHTPKAHTALSFVNGQAGSDPTYGHVAFVEAVKDDGSILISEMNVYGQPAMTVAYRTFDAETAKQFWYVEGK”, the protein production result is “failed”.

For the sequence “MFWIVLIVILLLALAGLFFVRAQSEREWMREVSAWQEKKGEKQAELPEIKDGMPDFPEFSLMLFHAVKTAVYWLFVGVVRFCRNYLAHESEPDRPVPPASANRADVPTASDGYSDSGNGTEEAETEAAEAAEEEAADTEDIATAVIDNRRIPFDRSIAEGLMQSESKTSPVRPVFKEITLEEATRALSSAALRETKKRYIDAFEKNGTAVPKVRVSDTPMEGLQIIGLDDPVLQRTYSRMFDADKEAFSESADYGFEPYFEKQHPSAFSAVKAENARNAPFRRHAGQEKGQAEAKSPDVSQGQSVSDGTAVRDARRRVSVNLKEPNKATVSAEARISRLIPESRTVVGKRDVEMPSETENVFTETVSSVGYGGPVYDEAADIHIEEPAAPDAWVVEPPEVPEVAVPEIDILPPPPVSEIYNRTYEPPAGFEQAQRSRIAETDHLAADVLNGGWQEETAAIADDGSEGAAERSSGQYLSETEAFGHDSQAVCPFEDVPSERPSCRVSDTEADEGAFQSEETGAVSEHLPTTDLLLPPLFNPEATQTEEELLENSITIEEKLAEFKVKVKVVDSYSGPVITRYEIEPDVGVRGNSVLNLEKDLARSLGVASIRVVETIPGKTCMGLELPNPKRQMIRLSEIFNSPEFAESKSKLTLALGQDITGQPVVTDLGKAPHLLVAGTTGSGKSVGVNAMILSMLFKAAPEDVRMIMIDPKMLELSIYEGITHLLAPVVTDMKLAANALNWCVNEMEKRYRLMSFMGVRNLAGFNQKIAEAAARGEKIGNPFSLTPDDPEPLEKLPFIVVVVDEFADLMMTAGKKIEELIARLAQKARAAGIHLILATQRPSVDVITGLIKANIPTRIAFQVSSKIDSRTILDQMGAENLLGQGDMLFLPPGTAYPQRVHGAFASDEEVHRVVEYLKQFGEPDYVDDILSGGGSEELPGIGRSGDGETDPMYDEAVSVVLKTRKASISGVQRALRIGYNRAARLIDQMEAEGIVSAPEHNGNRTILVPLDNA”, the protein production entry is recorded as “failed”.

For the sequence “MFYHDFRTMLIRLRAQFIKELLCILRDPRNRVVVFVPPLMQLLIFSYAATMEVRNLDIAVYNQDTGRAAQELVWHLEAARFIAQVHHVHSNTALREQLVQGKVIAAIAIPADFSRTVAVSGSGHAQVLVDGRRSNSGQIVVGYLSSIARDIRFTADTAPIPETSVTVRHWFNPNLVYLWFMVPGLTGTLAFFSALMITALSIARERELGTFDQLLVSPASTLEIILSKSLPALVISSLLALLMITLAIWFFRIPFTGSFGLLLIGLVLFILSAVGIGLVISAISMTQQQAILGGFVIGVPTVLISGFATPVENMPLLLQWLAQAIPLTHFLIIIEGCFLKALPPRDVLANLWPLAVIAFTMLPIAMIFARSRLQ”, the protein production result is given as “failed”.

Consider “MGAAGGGWRMSERHLRRSTHKVGDVTLGPVHRLSCHCGAVQIDLDLPHGLLDPRRCDCSMCRRRGAIVASVSLDGLHVLQGEDVLRLYQFNTQTAAHYFCGVCGIYTHHRRRSNPNEYGYNVGCLEGVNPYALNIAVPVEDGVNHPADRVTAAS”, for which the protein production result was “failed”.

As to “MGACVCRMNPDNETMSVSSASISRPASAGIAMGAARKNRPLCHETIRWRSDVPLTEGQLRSKRDEFWDTAPAFDGRKEIWDALRAATTAAEGLDFQMAQAILDGANVSVPNGYLTECYDELGTQYKVPIYCLSYPINIVKEENGRDSPAEYSEPVDGGTDIFLKLRISSTMTDVKLPVYSKDTVGQCKKKLQAAEGVDACCQRWFYSGKLLGDKVPIDECSIHQGYVVQVIVNTEHYNHDNSTSTAHAS”, the protein production entry is “failed”.

As for “MGAIQFQTAPKLPVTVLLAAKNEAVNLPRCLAALGPAERVIVLDSHSTDATAEIARQHGAEVAQFDYRGGYPKKRQWALDTIPFGTPWILLLDADEVVPEDLWKEIGNVTRQPDADAYLITKGFHFLGRKFKHGGFSHSAVLLFKTGMARFEKLFDDDLNGLDMEIHERVVVDGRIGKLKTPLVHEDFKGLEAYITRHNKYSTWEAKVRHHYLTTGRYGEQTIKPRLFGNSQERRRFLKALIIRLPFEPQIWFIYHYLLRLGFLEGRPGLIASQIRAAYIAQARAKIYELRLNTPSRLEHHHHHH”, the protein production result is “failed”.
